Data on 10 molecules can be found in US20240150440A1 (LUMEN BIOSCIENCE, published 2024).

The target in experiment [1] is T1, recombinant SARS-CoV-2 RBD with C-terminal AviTag (SARS-CoV-2, UniProt P0DTC2 319-541). As to the kind of experiment: ELISA, competition with coated ACE2-Fc for RBD [Cont. 2]. A general note: ELISA stands for enzyme-linked immunosorbent assay.
Experiment [2] concerns the target T2, SARS-CoV-2 spike protein on pseudotyped lentivirus (Wuhan Reference Pseudovirus) (SARS-CoV-2, UniProt P0DTC2 14-1273). Description: cell-based or functional assay.
The target of experiment [3] is T1, recombinant SARS-CoV-2 RBD with …. Description: BLI, biotinylated RBD on streptavidin biosensors [Cont. 2]. A general note: BLI is a label-free optical method that tracks binding on a fibre tip over time.
Experiment [4] has the same target. Description: BLI, biotinylated RBD on streptavidin biosensors, global 1:1 fit.
Experiment [5] has the same target. Description: ELISA, competition with coated ACE2-Fc for RBD [Cont. 5].
The target is the same in experiment [6]. Description: BLI, biotinylated RBD on streptavidin biosensors [Cont. 5].
The target in experiment [7] is T2, SARS-CoV-2 spike protein on pseudotyped …. Description: cell-based or functional assay. The source holds these as a separate data set.
For experiment [8], the target named is T1, recombinant SARS-CoV-2 RBD with …. Description: BLI, biotinylated RBD on streptavidin biosensors [Cont. 3].
Experiment [9] has the same target. As to the kind of experiment: BLI, biotinylated RBD on streptavidin biosensors; OR: over-range [Cont. 3].
The target is the same in experiment [10]. As to the kind of experiment: ELISA, competition with coated ACE2-Fc for RBD [Cont. 3].
The target is the same in experiment [11]. As to the kind of experiment: BLI, biotinylated RBD on streptavidin biosensors [Cont. 1].
The target is the same in experiment [12]. As to the kind of experiment: ELISA, competition with coated ACE2-Fc for RBD [Cont. 1].
Experiment [13] addresses T2, SARS-CoV-2 spike protein on pseudotyped …. Description: cell-based or functional assay. The source holds these as a separate data set.
Experiment [14] concerns the target T1, recombinant SARS-CoV-2 RBD with …. Description: BLI, biotinylated RBD on streptavidin biosensors; BLD: below limit of detection.
For experiment [15] the target is unchanged. As to the kind of experiment: ELISA, competition with coated ACE2-Fc for RBD.
For experiment [16], the target named is T2, SARS-CoV-2 spike protein on pseudotyped …. As to the kind of experiment: cell-based or functional assay. This is another data set of the same source.
For experiment [17], the target named is T1, recombinant SARS-CoV-2 RBD with …. Description: ELISA, competition with coated human ACE2-FC for RBD-AviTag.
Experiment [18] has the same target. As to the kind of experiment: BLI, biotinylated RBD on streptavidin biosensors.

B1: PP819 MBP-R5A-C5-H6 (VHH)
VHH: QVQLVESGGGLVQPGGSLRLSCAASGDIFSINALHWFRQAPGKQREEVAAITSGGSTGYADSVKGRFTISRDNAKNTVYLQMNSLKPEDTAVYYCAAQQARGGLDSDYWGQGTQVTVSS
notes: Form: Monomer
By IC50 is commonly meant the concentration needed to halve the response being measured. The Kd is the equilibrium constant for the complex coming apart. For B1, the IC50 in experiment [1] came out at 71.9 nM. The “infectivity % under 10 ug/mL VHH treatment” value (shortened to “infectivity %”) in experiment [2] amounted to 54.1%. Further, the Kd in experiment [3] worked out at 42.1 nM.

B2: R5D-D4 (competition ELISA sample) (VHH)
VHH: QVQLVESGGGLVQPGGSLRLSCAASGSDFTINAMHWFRQAPGKQREFVATITSTSSTAYRDSVKGRFTISRDNAKNTVYLQMNSLKPEDTAVYYCAAFAVRDADTAGWTARDYWGQGTQVTVSS
Take B2: the Kd in [4] and in experiment [6] was 130 nM each time. In addition, the IC50 in experiment [5] was 48.1 nM. Moreover, the “Pseudovirus inhibition IC50 [Cont. 5]” value in [7] was found to be 166 nM.

B3: PP826 MBP-R5C-A2-H6 (VHH)
VHH: QVQLVESGGGLVQPGGSLRLSCAASGDIFSKNAMHWVRQAPGKQREFVAGIYSDGSSLYADSVKGRFTISRDNAKNTVYLQMNSLKPEDTAVYYCAALDYSARYRTWGQGTQVTVSS
notes: Form: Monomer
B3: the Kd in experiment [8] was 420 nM. For the same molecule, in experiment [2], the “infectivity %” value amounted to 70.6%.

B4: PP828 MBP-R5C-B2-H6 (VHH)
VHH: QVQLVESGGGLVQPGGSLRLSCAASGSIFSLNWVHWFRQAPGKSREGVASINSGGHADYSDSVKGRFTISRDNAKNTVYLQMNSLKPEDTAVYYCAAGPYGAYNFNSWGQGTQVTVSS
notes: Form: Monomer
Regarding B4, the “infectivity %” value in [2] came out at 73.4%. Besides, the Kd in experiment [9] was approximately 1370 nM. Further, the IC50 in experiment [10] was determined as 373 nM.

B5: PP822 MBP-R5A-E5-H6 (VHH)
VHH: QVQLVESGGGLVQPGGSLRLSCAASGYDFDILRMAWFRQAPGKEREMVAAITSAESVNYEDSVKGRFTISRDNAKNTVYLQMNSLKPEDTAVYYCATYDYTDDYGYASWGQGTQVTVSS
notes: Form: Monomer
For the molecule B5, in [1], the IC50 is 183 nM. Further, the “infectivity %” value in experiment [2] was determined as 71.6%. In addition, in experiment [3], the Kd was 6.97 nM.

B6: PP813 MBP-R2E-D2-H6 (VHH)
VHH: QVQLVESGGGLVQPGGSLRLSCAASGHQLSTNATHWFRQAPGKNREFVASIGSGSSSYYADSVKGRFTISRDNAKNTVYLQMNSLKPEDTAVYYCTALGGDELDGMTYDYWGQGTQVTVSS
notes: Form: Monomer
As to B6, in experiment [11], the Kd worked out at 100 nM. For the same molecule, the “infectivity %” value in [2] stood at 75.5%.

B7: dimeric VHH (VHH-5HVZ-MBP) R2C-G6 (VHH)
VHH: QVQLVESGGGLVQPGGSLRLSCAASGSIYKYSDVHWFRQAPGKAREAVALLTGAGTTIYGDSVKGRFTISRDNAKNTVYLQMNSLKPEDTAVYYCAAGQGFKATRTFDSWGQGTQVTVSS
Consider B7, for which, in experiment [11], the Kd turned out to be 35.7 nM. Moreover, the IC50 in [12] came to 3.9 nM. The “Pseudovirus inhibition IC50 [Cont. 1]” value in experiment [13] is 134 nM.

B8: PP802 MBP-R2A-C5-H6 (VHH)
VHH: QVQLVESGGGLVQPGGSLRLSCAASGTWGNIQYLSWFRQAPGKRREFVAAITPNNGTNYADSVKGRFTISRDNAKNTVYLQMNSLKPEDTAVYYCTAVLWYTTKEGPYDYWGQGTQVTVSS
notes: Form: Monomer
As to B8, the Kd in [14] is approximately 23 µM. Further, the “infectivity %” value in experiment [2] was 87.8%.

B9: MBP-5HVZ-R2A-C5-H6 (VHH, not shown: large carriers; small tags and cut ends)
VHH: QVQLVESGGGLVQPGGSLRLSCAASGTWGNIQYLSWFRQAPGKRREFVAAITPNNGTNYADSVKGRFTISRDNAKNTVYLQMNSLKPEDTAVYYCTAVLWYTTKEGPYDYWGQGTQVTVSS
Turning to B9, the Kd in experiment [14] is approximately 3.25 µM.

B10: dimeric VHH (VHH-5HVZ-MBP) R2A-F3 (VHH)
VHH: QVQLVESGGGLVQPGGSLRLSCAASGSITSINWMHWFRQAPGKDREGVASISQTGRGSYADSVKGRFTISRDNAKNTVYLQMNSLKPEDTAVYYCAAASRTGTPYNYWGQGTQVTVSS
B10: the Kd turned out to be 5.7 nM in experiment [4] and 5.66 nM in experiment [18]. Also, the IC50 in experiment [15] was 1.6 nM. Besides, the “Pseudovirus inhibition IC50” value in experiment [16] stood at 272 nM. In addition, in [17], the “IC50 (read off the curve)” value is approximately 2 nM.
